What was measured:
[1] = biological target: T1, P63 (huANGTPL7-GGPGG_sub-his) (human, UniProt O43827 27-346); assay: BLI Octet HTX; IgG on AHC sensor; P63 at 100 nM
T1 construct: also called full length human ANGPTL7 monomeric variant L59 GGPGG; not shown: C-terminal short linker and His tag
T1 sequence: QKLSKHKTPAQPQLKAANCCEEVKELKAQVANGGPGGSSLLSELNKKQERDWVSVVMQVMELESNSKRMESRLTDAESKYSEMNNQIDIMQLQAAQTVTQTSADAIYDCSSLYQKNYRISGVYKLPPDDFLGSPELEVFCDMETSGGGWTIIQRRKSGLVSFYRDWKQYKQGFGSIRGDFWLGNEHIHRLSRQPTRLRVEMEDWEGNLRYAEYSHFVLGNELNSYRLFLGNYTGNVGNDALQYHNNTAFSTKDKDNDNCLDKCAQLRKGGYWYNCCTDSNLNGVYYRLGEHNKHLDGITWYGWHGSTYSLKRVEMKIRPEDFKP
Protocol: Experiments were also conducted to determine the reactivity and dissociation constants (KD) of anti-ANGPTL7 antibodies with the human ANGPTL7 GGPGG_sub-his protein. Binding experiments were performed on Octet HTX (ForteBo) in 1×PBS, pH 7.4, 0.1 mg/mi BSA, 0.05% Sodium Azide, and 0.02% Tween 20. Antibodies at a concentration of 50 nM were loaded on pre-hydrated AHC biosensors for 5 min. The loaded sensors were dipped into monovalent P63 (huANGTPL7-GGPGG_sub-his) at a concentration of 100 nM for 5 min of association, followed by 10 min of dissociation.

[2] = biological target: T2, P60 (huANGPTL7-Fibrinogen-his) (human, UniProt O43827 129-343); assay: BLI Octet HTX; IgG on AHC sensor; P60 at 200 nM
T2 construct: also called human ANGPTL7 fibrinogen domain; not shown: C-terminal short linker and His tag
T2 sequence: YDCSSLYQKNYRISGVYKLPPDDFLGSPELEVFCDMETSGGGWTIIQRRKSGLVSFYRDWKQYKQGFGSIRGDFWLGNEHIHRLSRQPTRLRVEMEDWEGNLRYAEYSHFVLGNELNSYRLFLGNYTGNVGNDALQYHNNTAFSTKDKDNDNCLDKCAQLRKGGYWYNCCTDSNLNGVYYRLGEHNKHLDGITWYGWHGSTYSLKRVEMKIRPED
Protocol: ANGPTL7 Antibody Kinetics. Experiments were conducted to determine the reactivity and dissociation constants (KD) of anti-ANGPTL7 antibodies with the human fibrinogen domain of the ANGPTL7 protein. Binding experiments were performed on Octet HTX (ForteBio) in 1×PBS, pH 7.4, 0.1 mg/ml BSA, 0.05% Sodium Azide, and 0.02 Tween 20. Antibodies at a concentration of 50 nM were loaded on pre-hydrated AHC biosensors for 5 min. The loaded sensors were dipped into monovalent P60 (huANGPTL7-Fibrinogen-his) at a concentration of 200 nM for 5 min association, followed by 10 min dissociation. […] Responses (nm) at the end of association were also determined (Table 2).

[3] = biological target: T2, P60 (huANGPTL7-Fibrinogen-his); assay: BLI Octet HTX; IgG on AHC sensor; P60 at 200 nM; 1:1 fit
Summary of the method: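 Anti-ANGPTL7 IgG at 50 nM loaded 5 min on AHC biosensors, then dipped in monovalent P60 at 200 nM: 5 min association, 10 min dissociation.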

[4] = biological target: T3, Pext-01 (huANGTPL7-FLAG multimer) (human, UniProt O43827 27-346); assay: BLI Octet HTX; IgG on AHC sensor; Pext-01 at 100 nM; 1:1 fit; apparent KD
T3 construct: also called PExt-1; human wild type ANGPTL7 multimer; not shown: FLAG tag
T3 sequence: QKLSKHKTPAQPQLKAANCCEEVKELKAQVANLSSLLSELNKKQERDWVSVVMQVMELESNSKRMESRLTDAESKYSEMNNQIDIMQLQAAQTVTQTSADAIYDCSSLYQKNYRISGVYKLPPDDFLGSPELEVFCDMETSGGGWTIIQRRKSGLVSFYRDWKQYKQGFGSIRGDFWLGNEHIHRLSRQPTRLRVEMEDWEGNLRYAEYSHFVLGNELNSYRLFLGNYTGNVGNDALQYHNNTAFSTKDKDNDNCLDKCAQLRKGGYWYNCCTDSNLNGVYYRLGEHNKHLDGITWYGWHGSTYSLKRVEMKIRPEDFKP
Protocol: Experiments were also conducted to determine the reactivity and dissociation constants (KD) of anti-ANGPTL7 antibodies with the human ANGPTL7 multimer protein. Binding experiments were performed on Octet HTX (ForteBio) in 1×PBS, pH 7.4, 0.1 mg/ml BSA, 0.05% Sodium Azide, and 0.02% Tween 20. Antibodies at a concentration of 50 nM were loaded on pre-hydrated AHC biosensors for 5 mi. The loaded sensors were dipped into Pext-01 (huANGTPL7-FLAG) at a concentration of 100 nM for 5 min of association, followed by 10 min of dissociation. […] Responses (nm) at the end of association were also determined (Table 7).

P66 (rabbit ANGPTL7-his) = biological target: T4, P66 (rabbit ANGPTL7-his) (rabbit, UniProt G1T4P1 27-344); assay: BLI Octet HTX; IgG on AHC sensor; P66 at 200 nM; 1:1 fit
T4 construct: mature; also called rabbit ANGPTL7 protein
T4 sequence: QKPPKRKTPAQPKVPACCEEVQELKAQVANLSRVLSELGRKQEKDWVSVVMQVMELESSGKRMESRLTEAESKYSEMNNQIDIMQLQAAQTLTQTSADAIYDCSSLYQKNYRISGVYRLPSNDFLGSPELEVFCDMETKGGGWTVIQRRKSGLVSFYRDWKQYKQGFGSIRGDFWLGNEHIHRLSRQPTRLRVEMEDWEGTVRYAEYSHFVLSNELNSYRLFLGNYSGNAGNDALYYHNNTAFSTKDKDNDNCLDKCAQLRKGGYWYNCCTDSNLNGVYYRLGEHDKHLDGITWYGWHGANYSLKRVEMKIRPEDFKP
Summary of the method: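 Biolayer interferometry in PBS pH 7.4 with 0.1 mg/ml BSA, 0.05% sodium azide, 0.02% Tween 20; antibodies at 50 nM loaded on AHC sensors for 5 min. Monovalent analyte at 200 nM: 5 min association, 10 min dissociation; end-of-association response (nm) recorded, kinetics by 1:1 fit.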

B1: ATX-P-449 (antibody, human IgG1, kappa, N297A, V domains shown)
VH: QVQLVESGGGVVQPGRSLRLSCAASGFAFSSYGMHWVRQAPGKGLEWVAVISYYGSNKYYADSVKGRFTISRDNSKNTLYLQMNSLRAEDTAVYHCARGITMDVWGKGTTVTVSS
VL: EIVLTQSPATLSLSPGERATLSCRASQSVSSYLAWYQQKPGQAPRLLIYDASNRATGIPARFSGSGSGTDFTLTISSLEPEDFAVYYCQQRSNWPLTFGGGTKVEIKR
notes: Full chains (VH + hIgG1-Agly-Fc)
For B1, the binding result [1] was “no binding (tested: 100 nM)”, the binding result [2] was “no binding (tested: 200 nM)” and the Response [3] was 0.08 nm. For the same binder, the Response [4] was 0.65 nm, the Kd (P66 (rabbit ANGPTL7-his)) was 0.626 nM and the Response (P66 (rabbit ANGPTL7-his)) was 0.74 nm.

B2: ATX-P-443 (antibody, human IgG1, kappa, N297A, V domains shown)
VH: QVQLVQSGAEVKKPGASVKVSCKASGYTFTSYGISWVRQAPGQGLEWMGWIIAYNGNTNYAQKLQGRITMTTNTSTNTAYMELRSLRSDDTAVYYCGRDTGFSFDYWGQGTLVTVSS
VL: not shown
notes: as for B1
With B2 the binding result [1] was “no binding (tested: 100 nM)”, the binding result [2] was “no binding (tested: 200 nM)” and the Response [3] was 0.01 nm. It also gave a Response [4] of 0.03 nm and a Response (P66 (rabbit ANGPTL7-his)) of 0.03 nm.

B3: ATX-P-428 (antibody, human IgG1, kappa, N297A, V domains shown)
VH: QVQLVQSGAEVKKPGASVKVSCKASGYTFSSYGISWVRQAPGQGLEWMGWISAYNGNTNYAQNLRGRVAMTTDTSTTTAYMELRSLRSDDTAVYYCARVSLVWFGELPRGFDYWGQGTLVTVSS
VL: not shown
notes: as for B1
In the case of B3, the binding result [1] is reported as “no binding (tested: 100 nM)”, the binding result [2] is reported as “no binding (tested: 200 nM)” and the Response [3] is reported as 0.02 nm. It also gave a Response [4] of 0.05 nm and a Response (P66 (rabbit ANGPTL7-his)) of 0.04 nm.
